Measured values published in patent US8603949B2, “Libraries of optimized cytochrome P450 enzymes and the optimized P450 enzymes” (California Institute of Technology, priority 2003, dated 2013).
“Also recorded” adds a separate entry of the source.

B1: Chimera 191-335: CYP102A1 heme domain with residues 191-335 from CYP102A2 (protein)
chain: TIKEMPQPKTFGELKNLPLLNTDKPVQALMKIADELGEIFKFEAPGRVTRYLSSQRLIKEACDESRFDKNLSQALKFVRDFAGDGLATSWTHEKNWKKAHNILLPSFSQQAMKGYHAMMVDIAVQLVQKWERLNADEHIEVPEDMTRLTLDTIGLCGFNYRFNSFYRDQPHPFITSMVRALDEAMNKLQRLDVQDKLMVRTKRQFRYDIQTMFSLVDSIIAERRANGDQDEKDLLARMLNVEDPETGEKLDDENIRFQIITFLIAGHETTSGLLSFATYFLLKHPDKLKKAYEEVDRVLTDAAPTYKQVLELTYIRMILNESLRLWPTAPAFSLYPKEDTVLGGEYPLEKGDELMVLIPQLHRDKTIWGDDVEEFRPERFENPSAIPQHAFKPFGNGQRACIGQQFALHEATLVLGMMLKHFDFEDHTNYELDIKETLTLKPEGFVVKAKSKKIPLGGIPSPST
modifications: Chimeric Cytochrome P450 heme group sequence from Bacillus megaterium and Bacillus subtilis
notes: CYP102A1 heme domain with residues 191-335 from CYP102A2
B2: Chimera 169-197: CYP102A1 heme domain with residues 169-197 from CYP102A2 (protein)
chain: TIKEMPQPKTFGELKNLPLLNTDKPVQALMKIADELGEIFKFEAPGRVTRYLSSQRLIKEACDESRFDKNLSQALKFVRDFAGDGLATSWTHEKNWKKAHNILLPSFSQQAMKGYHAMMVDIAVQLVQKWERLNADEHIEVPEDMTRLTLDTIGLCGFNYRFNSFYRDTPHPFINSMVRALDEAMHQMQRLDVQDKLYDENKRQFQEDIKVMNDLVDKIIADRKASGEQSDDLLTHMLNGKDPETGEPLDDENIRYQIITFLIAGHETTSGLLSFALYFLVKNPHVLQKAAEEAARVLVDPVPSYKQVKQLKYVGMVLNEALRLWPTAPAFSLYAKEDTVLGGEYPLEKGDELMVLIPQLHRDKTIWGDDVEEFRPERFENPSAIPQHAFKPFGNGQRACIGQQFALHEATLVLGMMLKHFDFEDHTNYELDIKETLTLKPEGFVVKAKSKKIPLGGIPSPST
modifications: Chimeric Cytochrome P450 heme group sequence from Bacillus megaterium and Bacillus subtilis
notes: CYP102A1 heme domain with residues 169-197 from CYP102A2
B3: Chimera 43-135: CYP102A1 heme domain with residues 43-135 from CYP102A2 (protein)
chain: TIKEMPQPKTFGELKNLPLLNTDKPVQALMKIADELGEIFKFHTPAGTTIVVSGHELVKEVCDEERFDKSIEGALEKVRAFSGDGLATSWTHEPNWRKAHNILMPTFSQRAMKDYHEKMVDIAVQLIQKWARLNPDEHIEVPEDMTRLTLDTIGLCGFNYRFNSFYRDQPHPFITSMVRALDEAMNKLQRANPDDPAYDENKRQFQEDIKVMNDLVDKIIADRKASGEQSDDLLTHMLNGKDPETGEPLDDENIRYQIITFLIAGHETTSGLLSFALYFLVKNPHVLQKAAEEAARVLVDPVPSYKQVKQLKYVGMVLNEALRLWPTAPAFSLYAKEDTVLGGEYPLEKGDELMVLIPQLHRDKTIWGDDVEEFRPERFENPSAIPQHAFKPFGNGQRACIGQQFALHEATLVLGMMLKHFDFEDHTNYELDIKETLTLKPEGFVVKAKSKKIPLGGIPSPST
modifications: Chimeric Cytochrome P450 heme group sequence from Bacillus megaterium and Bacillus subtilis
notes: CYP102A1 heme domain with residues 43-135 from CYP102A2
B4: Chimera 165-256: CYP102A1 heme domain with residues 165-256 from CYP102A2 (protein)
chain: TIKEMPQPKTFGELKNLPLLNTDKPVQALMKIADELGEIFKFEAPGRVTRYLSSQRLIKEACDESRFDKNLSQALKFVRDFAGDGLATSWTHEKNWKKAHNILLPSFSQQAMKGYHAMMVDIAVQLVQKWERLNADEHIEVPEDMTRLTLDTIGLCGFNYRFNSYYRETPHPFINSMVRALDEAMHQMQRLDVQDKLMVRTKRQFRYDIQTMFSLVDSIIAERRANGDQDEKDLLARMLNVEDPETGEKLDDENIRFQIITFLIAGHETTSGLLSFALYFLVKNPHVLQKAAEEAARVLVDPVPSYKQVKQLKYVGMVLNEALRLWPTAPAFSLYAKEDTVLGGEYPLEKGDELMVLIPQLHRDKTIWGDDVEEFRPERFENPSAIPQHAFKPFGNGQRACIGQQFALHEATLVLGMMLKHFDFEDHTNYELDIKETLTLKPEGFVVKAKSKKIPLGGIPSPST
modifications: Chimeric Cytochrome P450 heme group sequence from Bacillus megaterium and Bacillus subtilis
notes: CYP102A1 heme domain with residues 165-256 from CYP102A2
B5: CYP102A1: parent P450 heme domain from Bacillus megaterium, with the F87A mutation (protein, listed as Bacillus megaterium)
chain: TIKEMPQPKTFGELKNLPLLNTDKPVQALMKIADELGEIFKFEAPGRVTRYLSSQRLIKEACDESRFDKNLSQALKFVRDFAGDGLATSWTHEKNWKKAHNILLPSFSQQAMKGYHAMMVDIAVQLVQKWERLNADEHIEVPEDMTRLTLDTIGLCGFNYRFNSFYRDQPHPFITSMVRALDEAMNKLQRANPDDPAYDENKRQFQEDIKVMNDLVDKIIADRKASGEQSDDLLTHMLNGKDPETGEPLDDENIRYQIITFLIAGHETTSGLLSFALYFLVKNPHVLQKAAEEAARVLVDPVPSYKQVKQLKYVGMVLNEALRLWPTAPAFSLYAKEDTVLGGEYPLEKGDELMVLIPQLHRDKTIWGDDVEEFRPERFENPSAIPQHAFKPFGNGQRACIGQQFALHEATLVLGMMLKHFDFEDHTNYELDIKETLTLKPEGFVVKAKSKKIPLGGIPSPST

Assay: Peroxygenase activity, hydroxylation of 12-pNCA
Type: biochemical
Details: 250 μM 12-pNCA
Protocol: (§1) The chimeras were assayed for hydroxylation of p-nitrophenoxydodecanoic acid (12-pNCA), a fatty acid analog that is hydroxylated by CYP102A1 and CYP102A2 to yield p-nitrophenolate (Schwaneberg et al., Anal Biochem 269,359-366 (1999)). […] When hydroxylation rates for the parent CYP102 enzymes were monitored using the maximum soluble concentrations of these substrates, activity could only be detected on 2-phenoxy-ethanol.
(§2) This Example provides one method by which peroxygenase activity of a P450 enzyme may be characterized. First order rates for p-nitrophenolate accumulation were determined using 1 μM enzyme, 20 mM H2O2, 250 μM 12-pNCA and 0.5% dimethyl sulfoxide (DMSO) in 100 mM Tris-HCl (pH 8.2) at room temperature. Enzyme, substrate, buffer and DMSO were combined in a cuvette and zeroed at 410 nm. Reaction mixtures were incubated for 4 minutes and initiated by the addition of H2O2 to a final concentration of 20 mM. Initial rates were determined by monitoring the accumulation of p-nitrophenolate at 410 nm, and data from the first six seconds were used to determine initial rates. […] The extinction coefficient of p-nitrophenolate is 13,200 M^−1cm^−1 (Schwaneberg et al., Anal Biochem 269:359-366 (1999)).

Row | Molecule | peroxygenase activity on 12-pNCA
1 | B1 | not
2 | B2 | most active; also recorded: significant increase
3 | B3 | not

Assay: Thermostability (loss of Soret band at increasing temperatures)
Type: physicochemical
Details: cell extracts heated 10 minutes
Protocol: Thermostability was assayed by monitoring the loss of the Soret band at increasing temperatures. […] However, thermostability may be important for retention of catalytic activity: the two chimeras that lacked peroxygenase activity were also the least thermostable.
Cell extracts were heated in a thermocycler for 10 minutes at various temperatures, followed by cooling to 4° C. Extracts were centrifuged for 5 minutes at 3500×g to remove any precipitates. Carbon monoxide reduced difference spectroscopy was used to quantitate the amount of P450. The reduction of the carbon monoxide peak was monitored over a range of temperatures.

Row | Molecule | Tm
4 | B1 | 40 °C
5 | B4 | 48 °C
6 | B5 | 55 °C
7 | B2 | 52 °C
8 | B3 | 53 °C

Assay: Peroxygenase activity on allyloxy-benzene (4-AAP assay)
Type: biochemical
Details: 50 mM substrate
Protocol: as §1
(§3) Rates on 2-phenoxy-ethanol and allyloxy-benzene were determined using 2 μM enzyme, 20 mM H2O2, 1% DMSO, and 1% acetone in 100 mM N-[2-hydroxyethyl]piperazine-N′-[3-propanesulfonic acid] (Epps) (pH 8.2) at room temperature. Substrate concentrations for 2-phenoxy-ethanol (100 mM) and allyloxy benzene (50 mM) maintained saturation. Reactions were initiated by the addition of H2O2 and quenched at appropriate times using an equal volume of a solution containing 4M urea and 100 mM NaOH. 120 μl of 0.6% 4-AAP was added, followed by mixing and addition of 120 μl of 0.6% potassium persulfate. Color was allowed to develop for 20 minutes before absorbance was read at 500 nm. Rates were determined from the linear region of the time course. The major products were determined by GC/MS to be the hemiacetal, which decomposes to phenol. The extinction coefficient for the 4-AAP/phenol complex was determined to be 4,800 M^−1cm^−1. The results can be seen in FIG. 4.

Row | Molecule | peroxygenase activity on allyloxy-benzene
9 | B1 | detectable activity
10 | B4 | highest rates
11 | B3 | highest rates; also recorded: detectable activity

Assay: Peroxygenase activity on 2-phenoxy-ethanol (4-AAP assay)
Type: biochemical
Details: 100 mM substrate
Protocol: as §1, §3

Row | Molecule | peroxygenase activity on 2-phenoxy-ethanol
12 | B1 | detectable activity
13 | B3 | detectable activity

Assay: Peroxygenase substrate activity profile
Type: biochemical
Details: 20 mM H2O2
Protocol: as §1
Chimeras were assayed for peroxygenase activity on 12-pNCA, 2-phenoxy -ethanol and allyloxy-benzene. […] Rates are reported in nmol product/nmol P450/minute. […] Those with no activity include 65-256 and 277-365. Those with new activity include 165-256, 191-335, and 43-135.
as §2, §3

Row | Molecule | substrate activity profile relative to parents
14 | B1 | new activity; also recorded: gained novel activity
15 | B4 | broadest substrate specificity; also recorded: new activity; also recorded: active on all three substrates; also recorded: gained novel activity
16 | B2 | parent-like profiles
17 | B3 | new activity; also recorded: gained novel activity

Assay: Peroxidase activity with ABTS and H2O2
Type: biochemical
Details: 10 mM ABTS, 20 mM H2O2, pH 5.0; activities <0.2 not detectable (N.D.)
From the text: P450s can reduce peroxide to water (and a proton) using a mechanism similar to that of peroxidases, although the intrinsic rate for P450s is many orders of magnitude slower. (Mansuy, D., Comp Biochem Physiol C Pharmacol Toxicol Endocrinol 121, 5-14 (1998)). It has been proposed that the earliest P450 function may have been as a peroxidase. (Gotoh, O., Cytochrome P450, 2nd Edition, pp. 255-272 (1993)). To investigate how recombination affects P450 peroxidase activity, the colorimetric substrate 2,2′-azino-bis(3-ethylbenzothiazoline-6-sulfonate) (ABTS) was used to monitor this reaction (Childs et al., Biochem J 145,93-103 (1975)).
This example provides an example of how one can measure peroxidase activity. Initial rates of peroxidase activity were measured by monitoring the accumulation of the radical cation of ABTS at 414 nm (Childs et al., Biochem J., 145:93-103 (1975)). Enzyme (1 μM) was mixed with 10 mM ABTS in 200 mM phosphate buffer (pH 5.0) in a cuvette at room temperature. Samples were zeroed and reactions were initiated with the addition of H2O2 to a concentration of 20 mM. The absorbance at 414 nm was monitored for 5 minutes. Rates were determined from the steepest portion of the time course. An extinction coefficient of […] for ABTS was used.

Row | Molecule | Peroxidase activity
18 | B4 | 16.1 nmol product/nmol P450/min
19 | B5 | 2.6 nmol product/nmol P450/min
20 | B2 | 100.3 nmol product/nmol P450/min
21 | B3 | 6.8 nmol product/nmol P450/min

Same assay, conditions: ABTS

Row | Molecule | peroxidase activity relative to parents | fold increase of peroxidase activity over the most active parent
22 | B1 | no detectable peroxidase activity | 
23 | B4 | significantly higher peroxidase activities | 
24 | B5 | low, but detectable peroxidase activity | 
25 | B2 | highest peroxidase and peroxygenase rates; also recorded: significantly higher peroxidase activities | approximately 40 fold

Assay: not given
Details: Li et al. 2001; read-out: KM for 12-pNCA; cited from earlier work

Row | Molecule | Km
26 | B5 | 8.1 µM
